These results are taken from patent US20160348147A1, “SYSTEMS AND DEVICES FOR PROTEASE DETECTION BASED ON ENGINEERED POLYMERS AND BIOPOLYMERS AND METHODS OF USE” (DUKE UNIVERSITY, priority 2014, published 2016).

Holding throughout (assay type): biochemical
In series [1] the target is T1, Human MMP-1 catalytic domain (Homo sapiens, UniProt P03956).
T1 construct: Human MMP-1 catalytic domain (recombinant, produced in E. coli, 19.9 kDa, >95% purity); purchased Enzo Life Sciences (Farmingdale, N.Y.); host or cells: E. coli
T1 sequence (P03956 100-269 limits assumed): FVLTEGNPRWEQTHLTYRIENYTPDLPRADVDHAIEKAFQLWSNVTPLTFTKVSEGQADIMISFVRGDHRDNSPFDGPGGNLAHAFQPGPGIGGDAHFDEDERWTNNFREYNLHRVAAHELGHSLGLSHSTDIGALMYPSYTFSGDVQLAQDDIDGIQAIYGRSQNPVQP
The series can be described thus: Time-dependent aggregation (OD350) of ELP-substrate fusion with MMP-1 in proteolysis buffer. Conditions: 50 ng/mL MMP-1, without the inhibitor, proteolysis buffer, 40° C., 100 μM.

Series [2] deals with endogenous MMP-1 in human serum. The series can be described thus: Time-dependent aggregation (OD350) of ELP-substrate fusion in diluted human serum (40%). Conditions: diluted serum with no added MMP-1, 37° C. The procedure: (§1) We performed the proteolysis reactions either in 100% protease buffer or in a mixture of human serum and buffer (40% (v/v) serum, 50% (v/v) buffer, 10% (v/v) ELP-substrate solution in water). The proteolysis buffer (100 mM HEPES, CaCl2 20 mM, MgCl2 1.0 mM, ZnCl2 100 μM, NaCl 0.5 M for diluted serum and 0.1 M for buffer solutions) was made experimentally in our lab based on previously published assays (Patterson, J. & Hubbell, J. A. Biomaterials 2010, 31, 7836-7845; Turk, B. E. et al., Nature Biotechnology 2001, 19, 661-667; Lowe, S. B. et al., Acs Nano 2012, 6, 851-857). We investigated proteolysis in two ways. In the first approach, we incubated solutions of the ELP-substrate fusion with MMP-1 (100 ng/mL) for 12 h at 40° C. temperature and measured the optical density at 350 nm (OD350) before and after the incubation. In the second approach, we incubated the ELP-substrate fusion with varying concentrations of MMP-1 (0.02 ng/mL to 200 ng/mL) in buffer or in diluted human serum, at 40° C. or 37° C. respectively, a temperature that is above the CMT of the ELP, and monitored the changes OD350 as a function of time (kinetic study). For the kinetic studies, we added the enzyme to the solution after the optical density of the solution reached a steady-state value and repeated the experiments at least three times. […]

The next series concerns the target T2, MMP-1 (Homo sapiens, UniProt P03956).
T2 construct: Human MMP-1 catalytic domain (recombinant, produced in E. coli, 19.9 kDa, >95% purity); purchased Enzo Life Sciences (Farmingdale, N.Y.); host or cells: E. coli
T2 sequence (P03956 100-269 limits assumed): T1 sequence (P03956 100-269 limits assumed)
The experiment in a line: Thermal behavior (OD350, DLS) after incubation with MMP-1. Conditions: MMP-1 100 ng/mL, 12 h at 40° C. The procedure:
as §1

For “M(GVGVP)60GDGQVPMSMRGGDDEGQQDDEEGY (MGVGVPGDGQVPMSMRGGDDEGQQDDEEGY) [ELP-substrate fusion, recombinant polypeptide: ELP fused to MMP-1 substrate and charged hydrophilic peptide]”, the aggregation time entry in series [1] is given as “less than 50 min”; in series [2] it was roughly 350 min. Moreover, the “temperature above which large aggregates form after incubation with MMP-1” value in the series with MMP-1 (100 μM) is “≈ 37 °C”. Also, the “particle diameter after incubation with MMP-1” value with MMP-1 (DLS at 38° C.) was “over a micron”.
